Assay results from the RNAGym collection of RNA variant scans (doi:10.7554/elife.90254).

B1: LINE1-full (parent)
chain: UACGUAGGUGGUUUUCCCCUGAUAGUGCUAAGGGGGCCUGGAAGUUUGGACUGGGCAGAGCUCAACACAGCGUGGCAAAGUGGCUGUGGCUAGACUGCCUCUCUGGAUUCCUCGUCACUCAGCAGGGCAUCUCUGAGAGAAAUGCC

Variants of: B1
Test: self-cleavage, relative activity (ratio to wild type); higher = more cleavage; in vitro, sequencing; the parent is a self-cleaving ribozyme

Point of comparison: UACGUAGGUGGUUUUCCCCUGAUAGUGCUAAGGGGGCCUGGAAGUUUGGACUGGGCAGAGCUCGACACAGCGUGGCAAAGUGGCUGUGGCUAGACUGCCUCUCUGGAUUCCUCGUCACUCAGCAGGGCAUCUCUGAGAGUAAUGCC [A64G A140U], self-cleavage 0.3. Against it:
- UACGUAGGUGGUUUUCCCCUGAUAGUGCUAAGGGGGCCUGGAAGUUUGGACUGGGCAGAGCUCGGCACAGCGUGGCAAAGUGGCUGUGGCUAGACUGCCUCUCUGGAUUCCUCGUCACUCAGCAGGGCAUCUCUGAGAGAAAUGCC [A64G A65G] — lower, 0.11
- UACGUAGGUGGUUUUCCCCUGAUAGUGCUAAGGGGGCCUGGAAGUUUGGACUGGGCAGAGCUCGACACAGCGUGGCAGAGUGGCUGUGGCUAGACUGCCUCUCUGGAUUCCUCGUCACUCAGCAGGGCAUCUCUGAGAGAAAUGCC [A64G A78G] — lower, 0.25
- UACGUAGGUGGUUUUCCCCUGAUAGUGCUAAGGGGGCCUGGAAGUUUGGACUGGGCAGAGCUCGACACAGCGUGGCAAAGUGGCUGUGGCUAGACUGCCUCUCUGGAUUCCUCGUCACUCAGCAGGGCAUCUCUGAGAGAGAUGCC [A64G A141G] — lower, 0.21
- UACGUAGGUGGUUUUCCCCUGAUAGUGCUAAGGGGGCCUGGAAGUUUGGACUGGGCAGAGCUCGACACAGCGUGGCAAUGUGGCUGUGGCUAGACUGCCUCUCUGGAUUCCUCGUCACUCAGCAGGGCAUCUCUGAGAGAAAUGCC [A64G A79U] — higher, 0.34
- UACGUAGGUGGUUUUCCCCUGAUAGUGCUAAGGGGGCCUGGAAGUUUGGACUGGGCAGAGCUCGACACAGCGUGGCGAAGUGGCUGUGGCUAGACUGCCUCUCUGGAUUCCUCGUCACUCAGCAGGGCAUCUCUGAGAGAAAUGCC [A64G A77G] — higher, 0.42
- UACGUAGGUGGUUUUCCCCUGAUAGUGCUAAGGGGGCCUGGAAGUUUGGACUGGGCAGAGCUCGACACAGCGUGGCUAAGUGGCUGUGGCUAGACUGCCUCUCUGGAUUCCUCGUCACUCAGCAGGGCAUCUCUGAGAGAAAUGCC [A64G A77U] — lower, 0.23
- UACGUAGGUGGUUUUCCCCUGAUAGUGCUAAGGGGGCCUGGAAGUUUGGACUGGGCAGAGCUCGACACAGCGUGGCAAAGUGGCUGUGGCUAGACUGCCUCUCUGGAUUCCUCGUCUCUCAGCAGGGCAUCUCUGAGAGAAAUGCC [A64G A117U] — lower, 0.26
- UACGUAGGUGGUUUUCCCCUGAUAGUGCUAAGGGGGCCUGGAAGUUUGGACUGGGCAGAGCUCGACACAGCGUGGCAAAGUGGCUGUGGCUAGACUGCCUCUCUGGAUUCCUCGUCACUCUGCAGGGCAUCUCUGAGAGAAAUGCC [A64G A121U] — lower, 0.22
- UACGUAGGUGGUUUUCCCCUGAUAGUGCUAAGGGGGCCUGGAAGUUUGGACUGGGCAGAGCUCGACACAGCGUGGCAAAGUGGCUGUGGCUAGACUGCCUCUCUGGAUUCCUCGUCACUCCGCAGGGCAUCUCUGAGAGAAAUGCC [A64G A121C] — lower, 0.24
- UACGUAGGUGGUUUUCCCCUGAUAGUGCUAAGGGGGCCUGGAAGUUUGGACUGGGCAGAGCUCGACACAGCGUGGCAAAGUGGCUGUGGCUAGACUGCCUCUCUGGAUUCCUCGUCACUCAGCAGGGCAUCUCUGAGAGAAGUGCC [A64G A142G] — lower, 0.25
- UACGUAGGUGGUUUUCCCCUGAUAGUGCUAAGGGGGCCUGGAAGUUUGGACUGGGCAGAGCUCGACACAGCGUGGCAAAGUGGCUGUGGCUAGACUGCCUCUCUGGCUUCCUCGUCACUCAGCAGGGCAUCUCUGAGAGAAAUGCC [A64G A107C] — lower, 0.12
- UACGUAGGUGGUUUUCCCCUGAUAGUGCUAAGGGGGCCUGGAAGUUUGGACUGGGCAGAGCUCGACACAGCGUGGCAAAGUGGCUGUGGCUAGACUGCCUCUCUGGAUUCCUCGUCACUCAGCAGGGCAUCUCUGAGGGAAAUGCC [A64G A138G] — lower, 0.21
- UACGUAGGUGGUUUUCCCCUGAUAGUGCUAAGGGGGCCUGGAAGUUUGGACUGGGCAGAGCUCGACACAGCGUGGCAAAGUGGCUGUGGCUAGGCUGCCUCUCUGGAUUCCUCGUCACUCAGCAGGGCAUCUCUGAGAGAAAUGCC [A64G A94G] — lower, 0.06
- UACGUAGGUGGUUUUCCCCUGAUAGUGCUAAGGGGGCCUGGAAGUUUGGACUGGGCAGAGCUCGACACAGCGUGGCAAAGUGGCUGUGGCUAGUCUGCCUCUCUGGAUUCCUCGUCACUCAGCAGGGCAUCUCUGAGAGAAAUGCC [A64G A94U] — lower, 0.08
- UACGUAGGUGGUUUUCCCCUGAUAGUGCUAAGGGGGCCUGGAAGUUUGGACUGGGCAGAGCUCGACACAGCGUGGCAAAGUGGCUGUGGCUAGACUGCCUCUCUGGAUUCCUCGUCACUCAGCUGGGCAUCUCUGAGAGAAAUGCC [A64G A124U] — lower, 0.29
- UACGUAGGUGGUUUUCCCCUGAUAGUGCUAAGGGGGCCUGGAAGUUUGGACUGGGCAGAGCUCGACACAGCGUGGCAAAGUGGCUGUGGCUAGACUGCCUCUCUGGAUUCCUCGUCACUCAGCAGGGCGUCUCUGAGAGAAAUGCC [A64G A129G] — lower, 0.29
- UACGUAGGUGGUUUUCCCCUGAUAGUGCUAAGGGGGCCUGGAAGUUUGGACUGGGCAGAGCUCGACACAGCGUGGCAAAGUGGCUGUGGCUAGACUGCCUCUCUGGAUUCCUCGUCACUCAGCAGGGCUUCUCUGAGAGAAAUGCC [A64G A129U] — lower, 0.25
- UACGUAGGUGGUUUUCCCCUGAUAGUGCUAAGGGGGCCUGGAAGUUUGGACUGGGCAGAGCUCGACACAGCGUGGCAAAGUGGUUGUGGCUAGACUGCCUCUCUGGAUUCCUCGUCACUCAGCAGGGCAUCUCUGAGAGAAAUGCC [A64G C84U] — lower, 0.1
- UACGUAGGUGGUUUUCCCCUGAUAGUGCUAAGGGGGCCUGGAAGUUUGGACUGGGCAGAGCUCGACACAGCGUGGCAAAGUGGAUGUGGCUAGACUGCCUCUCUGGAUUCCUCGUCACUCAGCAGGGCAUCUCUGAGAGAAAUGCC [A64G C84A] — lower, 0.05
